Biological target: Flu-m158-66-TCR, on Jurkat T cells

In the case of “Influenza M158-66 ([…]) presented by HLA-A0201, single-chain trimer of pMHC displayed on the lentiviral surface (from UniProt P61769 21-119) (peptide-MHC)”, the percent of T cells GFP+ is reported as > 87%.

Source: US20250027073A1
